The target in this assay is A2MR receptor on Vero cells (monkey (Vero cell line)). The assay can be described thus: cell-based or functional assay.

RAPR13 (recombinant human LRPAP1 / receptor-associated protein with an N-terminal tag of 6 histidines and a thrombin cleavage site), sequence (P30533 other isoform, or with tags, fused parts or gaps limits assumed): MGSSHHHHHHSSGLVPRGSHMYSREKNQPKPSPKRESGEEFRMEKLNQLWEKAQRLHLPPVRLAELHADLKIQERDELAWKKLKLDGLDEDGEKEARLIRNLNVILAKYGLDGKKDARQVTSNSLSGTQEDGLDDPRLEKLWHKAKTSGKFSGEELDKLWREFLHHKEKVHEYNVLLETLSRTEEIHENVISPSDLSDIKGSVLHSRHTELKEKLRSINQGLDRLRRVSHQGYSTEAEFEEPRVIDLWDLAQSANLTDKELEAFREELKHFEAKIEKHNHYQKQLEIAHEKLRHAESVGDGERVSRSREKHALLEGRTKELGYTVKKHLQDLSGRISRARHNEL

Turning to “RAPR13 (recombinant human LRPAP1 / receptor-associated protein with an N-terminal tag of 6 histidines and a thrombin cleavage site) (from UniProt P30533 35-357) (ligand)”, the inhibition of the infection of Vero cells by DV1 (West Pac 74), lytic plaque assay, RAPR13 at 100 µg/mL amounted to 65%; the inhibition of the infection of Vero cells by DV2 (S16803), lytic plaque assay, RAPR13 at 100 µg/mL was 76%; the inhibition of the infection of Vero cells by DV3 (CH53489), lytic plaque assay, RAPR13 at 100 µg/mL turned out to be 60%; the inhibition of the infection of Vero cells by DV4 (TVP360), lytic plaque assay, RAPR13 at 100 µg/mL was determined as 75%.

(Values after patent US20110212105A1.)
